Laboratory results taken from the supplement of paper PMC11246515.
± gives the standard deviation of the averaged measurements.

Experiment: total protein half-life in vivo (active degradation + dilution); higher = more stable protein
[1] = E. coli NCM3722 delta-clpP delta-lon delta-hslV, growth: N-lim chemostat, doubling time 6 h
[2] = E. coli NCM3722 delta-clpP, growth: N-lim chemostat, doubling time 6 h
[3] = E. coli NCM3722 delta-hslV, growth: N-lim chemostat, doubling time 6 h
[4] = E. coli NCM3722 delta-lon, growth: N-lim chemostat, doubling time 6 h
[5] = E. coli NCM3722 delta-smpB, growth: N-lim chemostat, doubling time 6 h
[6] = wild type E. coli NCM3722, growth: C-lim chemostat, doubling time 3 h
[7] = wild type E. coli NCM3722, growth: C-lim chemostat, doubling time 6 h
[8] = wild type E. coli NCM3722, growth: C-lim chemostat, doubling time 12 h
[9] = wild type E. coli NCM3722, growth: N-lim chemostat, doubling time 6 h
[10] = wild type E. coli NCM3722, growth: N-lim chemostat, doubling time 12 h
[11] = wild type E. coli NCM3722, growth: P-lim chemostat, doubling time 6 h
[12] = wild type E. coli NCM3722, growth: P-lim chemostat, doubling time 12 h

Sequence	total protein half-life in vivo [1] [h]	total protein half-life in vivo [2] [h]	total protein half-life in vivo [3] [h]	total protein half-life in vivo [4] [h]	total protein half-life in vivo [5] [h]	total protein half-life in vivo [6] [h]	total protein half-life in vivo [7] [h]	total protein half-life in vivo [8] [h]	total protein half-life in vivo [9] [h]	total protein half-life in vivo [10] [h]	total protein half-life in vivo [11] [h]	total protein half-life in vivo [12] [h]
MLKIFNTLTRQKEEFKPIHAGEVGMYVCGITVYDLCHIGHGRTFVAFDVVARYLRFLGYKLKYVRNITDIDDKIIKRANENGESFVAMVDRMIAEMHKDFDALNILRPDMEPRATHHIAEIIELTEQLIAKGHAYVADNGDVMFDVPTDPTYGVLSRQDLDQLQAGARVDVVDDKRNPMDFVLWKMSKEGEPSWPSPWGAGRPGWHIECSAMNCKQLGNHFDIHGGGSDLMFPHHENEIAQSTCAHDGQYVNYWMHSGMVMVDREKMSKSLGNFFTVRDVLKYYDAETVRYFLMSGHYRSQLNYSEENLKQARAALERLYTALRGTDKTVAPAGGEAFEARFIEAMDDDFNTPEAYSVLFDMAREVNRLKAEDMAAANAMASHLRKLSAVLGLLEQEPEAFLQSGAQADDSEVAEIEALIQQRLDARKAKDWAAADAARDRLNEMGIVLEDGPQGTTWRRK	5.28 ± 0.8	4.75 ± 0.24	4.85 ± 0.22	5.1 ± 0.24	4.97 ± 0.14	3.24 ± 0.29	5.41 ± 0.088	9.907 ± 0.043	4.84 ± 0.17	7.97 ± 0.15	6.14 ± 0.47	11.5 ± 0.18
MLKKFRGMFSNDLSIDLGTANTLIYVKGQGIVLNEPSVVAIRQDRAGSPKSVAAVGHDAKQMLGRTPGNIAAIRPMKDGVIADFFVTEKMLQHFIKQVHSNSFMRPSPRVLVCVPVGATQVERRAIRESAQGAGAREVFLIEEPMAAAIGAGLPVSEATGSMVVDIGGGTTEVAVISLNGVVYSSSVRIGGDRFDEAIINYVRRNYGSLIGEATAERIKHEIGSAYPGDEVREIEVRGRNLAEGVPRGFTLNSNEILEALQEPLTGIVSAVMVALEQCPPELASDISERGMVLTGGGALLRNLDRLLMEETGIPVVVAEDPLTCVARGGGKALEMIDMHGGDLFSEE [P0A9X4]			6.55 ± 0.53	6.29 ± 0.99	5.69 ± 0.23	3.039 ± 0.01	6.72 ± 0.37	12.1 ± 0.77	6.13 ± 0.39	12.1 ± 0.8	5.94 ± 0.36	12.4 ± 0.42
MLKLLKTIMRAGTATVKYPFAPLEVSPGFRGKPDLMPSQCIACGACACACPANALTIQTDDQQNSRTWQLYLGRCIYCGRCEEVCPTRAIQLTNNFELTVTNKADLYTRATFHLQRCSRCERPFAPQKTIALAAELLAQQQNAPQNREMLWAQASVCPECKQRATLINDDTDVLLVAKEQL	4.78											
MLKLTDITWLYHHLPMRFSLTVERGEQVAILGPSGAGKSTLLNLIAGFLTPASGSLTIDGVDHTTMPPSRRPVSMLFQENNLFSHLTVAQNIGLGLNPGLKLNAVQQGKMHAIARQMGIDNLMARLPGELSGGQRQRVALARCLVREQPILLLDEPFSALDPALRQEMLTLVSTSCQQQKMTLLMVSHSVEDAARIATRSVVVADGRIAWQGMTNELLSGKASASALLGITG	4.96 ± 0.61	5.67 ± 0.82	6.21 ± 1.1	5.79 ± 0.26	5.31 ± 0.54	3.03 ± 0.11	5.94 ± 0.4	10.9 ± 0.42	5.13 ± 0.15	12.6 ± 1.7	5.54 ± 0.3	11.98 ± 0.032
